From PMC3814370 (2013) come the findings set out here.

For this assay, the target named is Pcc1–Kae1 binary complex from Pyrococcus abyssi (Pyrococcus abyssi (strain GE5 / …, UniProt Q9V1Z9,Q9UXT7)). The experiment in a line: gel filtration.
Pcc1–Kae1 binary complex from Pyrococcus abyssi (Pyrococcus abyssi, sequence (Q9V1Z9 whole entry, chain 1 of 2): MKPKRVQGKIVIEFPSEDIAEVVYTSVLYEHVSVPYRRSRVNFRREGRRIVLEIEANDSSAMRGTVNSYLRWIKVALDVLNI
Pcc1–Kae1 binary complex from Pyrococcus abyssi (Pyrococcus abyssi, sequence (Q9UXT7 whole entry, chain 2 of 2): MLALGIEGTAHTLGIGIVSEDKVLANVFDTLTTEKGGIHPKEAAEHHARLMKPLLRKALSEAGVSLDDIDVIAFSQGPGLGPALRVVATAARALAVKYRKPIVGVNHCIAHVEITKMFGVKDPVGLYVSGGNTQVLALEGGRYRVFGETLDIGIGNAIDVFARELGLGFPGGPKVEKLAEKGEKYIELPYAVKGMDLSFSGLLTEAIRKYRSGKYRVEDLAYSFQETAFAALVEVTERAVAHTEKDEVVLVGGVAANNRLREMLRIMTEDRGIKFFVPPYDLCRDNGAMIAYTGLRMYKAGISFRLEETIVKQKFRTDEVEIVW

B1: Bud32–Cgi121 binary complex from Pyrococcus abyssi (protein)
chain 1: MKLIKQGAEAKIYLAEFSELYFDYPIKVIVKERIKKRYRIPEIDLKLRKERTIREARILRRAKEFGVNVPYVFEVDTKNMIIVMEYIEGERLKELLEKLPMEERLKVCREVGRQIGKLHEAGIVHGDLTTSNMILREGKVYFIDFGLAEFDDTIEAQGVDLHLLKRAMESTHYKWFERGFEEVLKGYIEIRGEDKGREIREKIREIELRGRYRERSWITQ
chain 2: MTPKFKNFKHDNSGQVETYLFEVISKYTMLEIKTKFGKLCIAKVKLASESIERALNLCNDNCQIVSAKCHEEVIFATILAIKAFSSGRNTAKTIKGEILLRLAGVKQIKDAIKIIGARKGENLIIYFGVSDPCSSLKDFISSLGLREEPLKPCDEDEVKRGFERAAIIEAL
As for B1, the binding result was “binds”.
